The record followed here is PMC12218921, “An adaptive peptide-binding site in ubiquitin receptor hRpn13 revealed by structural studies” (Nature Communications, 2025).

In the assay the target is T1, hRpn13_ΔMTT (Homo sapiens, UniProt Q16186).
T1 construct: recombinant plasmid of hRpn13 Pru (1–150) cloned into the pRSET vector; GST (N, cleaved yes); residual Gly-Ser (^cG-^dS) left after cleavage; made in house; host or cells: Escherichia coli BL21 (DE3); pGEX-4T-1 plasmid synthesized by GenScript (Addgene 237412)
Kind of assay: 1H-15N HSQC NMR, K48-diUb constructs with hRpn13_ΔMTT. In kind it is binding. Particulars: for ubiquitin contact surface binding (HSQC): varying K48-diUb concentrations. The protocol: To test further whether peptide binding can influence hRpn13 Pru interaction with ubiquitin, we generated K48-linked diubiquitin in which the distal moiety (linked via G76) is extended by a 6-residue linker sequence of GSGGSG followed by either the ENT (K48-diUb^ENT) or EDGEGEE (K48-diUb^EDGEGEE) sequence. Varying concentrations of K48-diUb^ENT, K48-diUb^EDGEGEE, or K48-diUb^D77 were added to 100 μM ^15N-labeled hRpn13_ΔMTT and effects on hRpn13 monitored by recording ^1H-^15N HSQC spectra.
K48-diUb samples were produced by using a similar method as previously described. Briefly, Ub-D77 (proximal), Ub-ENT (proximal), Ub-EDGEGEE (proximal) and Ub-K48R (distal) were added at a final concentration of 0.8 mM to a reaction buffer (50 mM Tris pH 8.0, 5 mM MgCl2, 10 mM creatine phosphate, 0.6 U/mL inorg. PPase, 0.6 U/mL creatine kinase, 2 mM ATP) preincubated with 20 μM E2-25K. 0.1 μM E1 (R&D Systems) was added to this reaction system to initiate diUb synthesis, and it was left for 18 h at 37 °C. The reaction was quenched by dilution with 4 volumes of 50 mM sodium acetate (pH 4.5) and passed over a Mono S 5/50 GL column (GE Healthcare). Further purification was achieved by SEC on a HiLoad 16/600 Superdex 75 prep grade column (GE Healthcare) in buffer C.
All ^1H-^15N HSQC experiments were acquired on samples dissolved in NMR buffer (20 mM sodium phosphate, pH 6.5, 50 mM NaCl, 1 mM TCEP, 10% D2O) unless specified, in which case 2 mM DTT replaced TCEP. The samples were purified in DTT-containing buffer and then exchanged into NMR buffer by using Zeba Protein Desalting columns (Thermo Fisher Scientific). The pH was measured and adjusted to 6.5. All NMR experiments were performed at 25 °C on a Bruker Advance 600 MHz spectrometer equipped with a cryogenically cooled probe. The data were processed by NMRpipe[46] (version 11.5) and spectra visualized and analyzed with NMR-FAM-SPARKY[47] (version 3.190) by using previous chemical shift assignments[12],[23] and NMRbox[48]. The amide nitrogen and hydrogen chemical shift perturbations (CSP) were mapped for each amino acid according to Eq. 1.1 CSP=0.2ΔδN2+ΔδH2
Supplementary Figure 13: NMR experiments of hRpn13 Pru binding to K48-diUb^EDGEGEE, K48-diUb^ENT or K48-diUb^D77. a) ^1H-^15N HSQC spectrum of 0.1 mM ^15N-labeled hRpn13_ΔMTT alone (black) or with equimolar K48-diUb^EDGEGEE (blue), K48-diUb^ENT (red) or K48-diUb^D77 (green). Select residues are labeled. The spectra were acquired on a 600 MHz spectrometer equipped with a cryogenically cooled probe and at 25°C samples with samples dissolved in 20 mM sodium phosphate, pH 6.5, 100 mM NaCl, 1 mM TCEP, 10% D2O.

T1 sequence (Q16186 4-150, stated change not applied): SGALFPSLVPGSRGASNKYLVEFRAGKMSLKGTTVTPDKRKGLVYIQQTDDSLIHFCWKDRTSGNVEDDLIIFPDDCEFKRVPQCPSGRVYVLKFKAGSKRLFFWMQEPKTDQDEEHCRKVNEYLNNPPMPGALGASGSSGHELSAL

Take “K48-diUb^D77: K48-linked diubiquitin from Ub-D77 (proximal) and Ub-K48R (distal) [reference compound]”: where the note is “100 μM 15N-hRpn13_ΔMTT”, the “ubiquitin contact surface binding (HSQC)” value is “binding to ubiquitin was observed”.

In the case of “K48-diUb^EDGEGEE: K48-linked diubiquitin extended by linker GSGGSG followed by EDGEGEE”, where the note is “100 μM 15N-hRpn13_ΔMTT”, the “bound state hRpn13 F76 signal” value is given as “A bound state hRpn13 signal was only observed for K48-diUb^EDGEGEE”, the “strength of complex with hRpn13 (HSQC)” value is on record as “stronger complex with hRpn13 compared to K48-diUb^ENT or K48-diUb^D77” and the “ubiquitin contact surface binding (HSQC)” value is given as “binding to ubiquitin was observed”. The “hRpn13 D78, A100, and G101 signal shifting compared to K48-diUb^D77” value (sub-stoichiometric K48-diUb concentrations) is “more pronounced shifting at sub-stoichiometric concentrations”.
